Results: patent US20130266574A1 (Regeneron, published 2013)

Target: T1, mANGPTL4-His [R26-S410 of mANGPTL4 (SEQ ID NO: 478) fused with an AS linker to a C-terminal 6-histidine tag] (mouse, UniProt Q9Z1P8 26-410)
T1 construct: also called mANGPTL4(26-410)-His
T1 sequence: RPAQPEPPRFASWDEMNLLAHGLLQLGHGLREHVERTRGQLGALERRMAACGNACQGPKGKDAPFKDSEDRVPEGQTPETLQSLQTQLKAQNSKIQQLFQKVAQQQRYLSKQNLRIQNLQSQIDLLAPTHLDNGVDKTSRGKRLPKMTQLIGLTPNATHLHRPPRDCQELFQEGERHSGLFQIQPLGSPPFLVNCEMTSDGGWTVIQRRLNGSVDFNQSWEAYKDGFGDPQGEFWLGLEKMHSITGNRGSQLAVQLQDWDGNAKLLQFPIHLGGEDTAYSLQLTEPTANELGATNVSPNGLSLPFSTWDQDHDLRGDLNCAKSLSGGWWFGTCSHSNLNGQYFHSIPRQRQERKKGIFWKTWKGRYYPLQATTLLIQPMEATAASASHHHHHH
Assay: SPR (Biacore), antigen amine coupled
Procedure: Possible cross-reactivity of the anti-hANGPTL4 antibodies to related proteins, i.e., hANGPTL3, human angiopoietin-like protein 5 (hANGPTL5) and mouse ANGPTL4 (mANGPTL4), was tested for the selected antibodies, i.e., H1H268P and H1H284P, using the BIACORE™ system. Briefly, anti-hANGPTL4 antibodies as well as negative controls, i.e., two monoclonal antibodies (Control a and Control b) that are non-binders to any ANGPTL proteins, were injected at 3.125 μg/mL-50 μg/mL over amine coupled chip surfaces of hANGPTL3-His (R&D Systems, cat #3829-AN) at 5228 RU, hANGPTL4-His (R&D Systems, cat #4487-AN) at 6247 RU, hANGPTL5-His (Abnova Corp., cat #H00253935-P01) at 5265 RU, and mANGPTL4-His [R26-S410 of mANGPTL4 (SEQ ID NO: 478) fused with an AS linker to a C-terminal 6-histidine tag] at 5233 RU, respectively. A polyclonal antibody specific for hANGPTL3 (R&D System, cat #BAF3485) was also tested.

B1: H1H284P (antibody, V domains shown)
VH: QVQLVESGGGVVQPGRSLRLSCAASGFTFSSYGMHWVRQAPGKGLEWMAVISFDGGNKNNADSVKGRFTISRDNSKNTLYLQMNSLRAEDTAVYYCAKEGDRSGHPYFYYYGLDVWGQGTTVTVS
VL: DIQLTQSPSFLSASVGDRVTITCWASQGISSYLAWYQQKPGKAPKLLIYAASTLQSGVPSRFSGSGSETEFTLTISSLQPEDFATYYCQQLHSYPLTFGGGTKVEIK
notes: also called entire H1H284 mAb; Full mAb
**Q.** Does B1 bind?
**A.** no binding (tested: 3.125 µg/mL-50 µg/mL)
